According to article PMC11514473, “The transition state for coupled folding and binding of a disordered DNA binding domain resembles the unbound state” (Nucleic Acids Research, 2024):

Legend:
Assay in all cases: stopped-flow fluorescence (koff/kon); 10 mM Mg2+; 10 mM MES pH 6.5, 150 mM NaCl, 10 mM MgCl2, 0.05% Tween-20, 25 C; NMR: 10 mM Tris-d11, 150 mM NaCl, 10 mM MgCl2, 1 mM NaN3, 5% D2O (NOE at 25 C)
Details in all cases: protein: recombinant; tags: extra N-terminal Gly; chain copies: 2; label: 5' Alexa Fluor 488; hairpin (self-annealing, 11 bp stem, CCCC loop)
285bZIP E295G = target: T1, 285bZIP E295G (human, UniProt P16220-1 285-339, C300S;C310S;C337S;E295G)
T1 sequence: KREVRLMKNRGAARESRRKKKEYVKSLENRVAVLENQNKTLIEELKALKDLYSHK

285bZIP E299G/E306G = target: T2, 285bZIP E299G/E306G (human, UniProt P16220-1 285-339, C300S;C310S;C337S;E299G;E306G)
T2 sequence: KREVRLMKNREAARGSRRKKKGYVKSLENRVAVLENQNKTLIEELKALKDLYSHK

285bZIP E299A/E306A = target: T3, 285bZIP E299A/E306A (human, UniProt P16220-1 285-339, C300S;C310S;C337S;E299A;E306A)
T3 sequence: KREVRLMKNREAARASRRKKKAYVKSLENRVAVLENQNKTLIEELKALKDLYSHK

285bZIP E295A/E299A = target: T4, 285bZIP E295A/E299A (human, UniProt P16220-1 285-339, C300S;C310S;C337S;E295A;E299A)
T4 sequence: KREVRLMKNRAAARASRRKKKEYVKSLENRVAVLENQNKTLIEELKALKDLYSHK

285bZIP K309G = target: T5, 285bZIP K309G (human, UniProt P16220-1 285-339, C300S;C310S;C337S;K309G)
T5 sequence: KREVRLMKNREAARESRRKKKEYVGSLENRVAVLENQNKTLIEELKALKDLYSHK

285bZIP V288A = target: T6, 285bZIP V288A (human, UniProt P16220-1 285-339, C300S;C310S;C337S;V288A)
T6 sequence: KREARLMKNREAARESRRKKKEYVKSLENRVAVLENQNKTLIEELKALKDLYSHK

285bZIP E295A = target: T7, 285bZIP E295A (human, UniProt P16220-1 285-339, C300S;C310S;C337S;E295A)
T7 sequence: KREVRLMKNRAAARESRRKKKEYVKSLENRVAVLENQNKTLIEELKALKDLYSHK

285bZIP E306A = target: T8, 285bZIP E306A (human, UniProt P16220-1 285-339, C300S;C310S;C337S;E306A)
T8 sequence: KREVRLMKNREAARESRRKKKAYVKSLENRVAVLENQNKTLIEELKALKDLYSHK

285bZIP E299G = target: T9, 285bZIP E299G (human, UniProt P16220-1 285-339, C300S;C310S;C337S;E299G)
T9 sequence: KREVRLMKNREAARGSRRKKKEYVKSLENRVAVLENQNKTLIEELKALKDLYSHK

285bZIP M291G = target: T10, 285bZIP M291G (human, UniProt P16220-1 285-339, C300S;C310S;C337S;M291G)
T10 sequence: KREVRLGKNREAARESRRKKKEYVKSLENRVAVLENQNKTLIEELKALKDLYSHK

B1: AlexaFluor488-CREh (structured_DNA)
DNA: CCTGACGTCAGCCCCCTGACGTCAGG
B1 showed a Kd (285bZIP E295G) of 6 ± 0.4 nM, a Kd (285bZIP E299G/E306G) of 54 ± 4 nM and a Kd (285bZIP E299A/E306A) of 0.0415 ± 0.0008 nM. The Kd (285bZIP E295A/E299A) was 0.102 ± 0.008 nM, the Kd (285bZIP K309G) was 26 ± 2 nM and the Kd (285bZIP V288A) was 0.46 ± 0.05 nM. It also gave a Kd (285bZIP E295A) of 0.239 ± 0.016 nM, a Kd (285bZIP E306A) of 0.139 ± 0.012 nM and a Kd (285bZIP E299G) of 2.72 ± 0.15 nM. It also gave a Kd (285bZIP M291G) of 5.2 ± 0.7 nM.
